Measurements: patent US10159707B2, “Treatment of cancers with immunostimulatory HIV Tat derivative polypeptides” (PIN Pharma, Inc., priority 2013, dated 2018)
Entries after “also recorded” stand apart in the source; their conditions may differ.

How the values were obtained:
Assay type in all cases: in vivo, mouse
IFN-γ = test: ELISA analysis of IFN-γ production by immune spleen cells of 4T1 tumor-bearing mice
Protocol: Splenocyte secretion of IFN-γ was assessed by an OptEIA™ ELISA kit (BD Biosciences). Briefly, spleen cells (1×10^5/well) from 4T1 tumor-bearing mice were cultured with or without 5×10^3/well mitomycin C (50 μg/ml)-treated 4T1 cells (used to provide tumor antigens) in DMEM at a 20:1 E:T (effector:[…]) in 96-well plates. Supernatants were collected after 72 hr and kept frozen at −80° C. until analysis without loss of activity. IFN-γ was measured in cell-free supernatants of duplicate wells by ELISA according to the manufacturer's instructions. Tumor-specific IFN-γ production was calculated by subtracting the background values measured in supernatants of spleen cells cultured with medium alone and optical density (OD) values were converted to pg/ml amounts of IFN-γ using a recombinant IFN-γ standard curve. Stimulation index (SI) was calculated as the ratio of IFN-γ in stimulated versus control cultures.
To determine whether cytotoxic T-lymphocytes play a role in tumor rejection induced by Nani-P2 therapy, an IFN-γ ELISA assay (FIG. 7) was performed to compare spleen cells of 4T1 tumor-bearing mice treated either without (Control) or with Nani-P2 (FIG. 7). Spleens were removed under sterile conditions and prepared as described elsewhere (duPre'S. et al. Exp. Mol. Path. 85:174-188, 2008). Briefly, spleens were homogenized and splenocytes, as a rich source of systemic cytolytic T cells and APCs, were co-cultured with mitomycin C-treated 4T1 stimulator cells to induce recall immune responses. Control wells were cultured with medium alone.

SM1 breast cancer cells = test: SM1 mammary carcinoma model, primary tumor growth
Protocol: (§1) BALB/c mice were injected (SC) with 1×10^4 4 T1, 1×10^5 TS/A or 2×10^5 SM1 cells, respectively, in the left mammary pad on day 0. […] The control group received PBS injection. […] Tumor burden (tumor volume) was measured and recorded three times weekly. Animals were sacrificed when tumors reached a volume of 15 mm in diameter and the tumors harvested and weighed.
The SM1 mammary carcinoma model (FIG. 6B) is initially less aggressive as a primary tumor, and deaths appear to be through mechanisms other than metastatic disease. By day 30 of treatment, SM1 tumors reached a mean volume approximately 33% smaller than either TS/A or 4T1. This indicated a heightened sensitivity of the SM1 tumor to Nani-P2 immunotherapy as compared to 4T1, such that tumor growth was suppressed in 100% of animals for 16 days, and 40% of animals remained in remission even at 28 days following implant and fully one week after termination of the regimen.

4T1 breast tumor = test: 4T1 primary breast tumor growth in BALB/c mice
Protocol: as §1
The therapeutic effect of systemic administration of synthetic, Tat-derived compositions in murine models of breast cancer was investigated. […]

TS/A breast cancer cells = test: TS/A breast carcinoma model, primary tumor growth
Protocol: BALB/c mice were injected (SC) with 1×10^4 4 T1, 1×10^5 TS/A or 2×10^5 SM1 cells, respectively, in the left mammary pad on day 0. Immunotherapy was performed by directly injecting a Tat derivative into the right flank at 0, 7, 12, and 17 days after establishment of tumors. The control group received PBS injection. […] Tumor burden (tumor volume) was measured and recorded three times weekly. Animals were sacrificed when tumors reached a volume of 15 mm in diameter and the tumors harvested and weighed.
The 4T1 murine mammary tumor model was chosen for study because it is an aggressive and rapidly invasive tumor; it is routinely metastatic at fourteen days post-implant by which time it is difficult to treat. To learn whether the efficacy of Nani-P2 could extend to other murine breast tumor models, two additional mammary tumors, TS/A and SM1 were studied (FIG. 6). TS/A primary mammary tumors were approximately as aggressive as 4T1, reaching a tumor volume of 15 mm at 30 days (FIG. 6A). However, the TS/A tumors were considerably more responsive to Nani-P2 treatment, with an approximate 50% suppression of growth after treatment with 0.4 ng Nani-P2, and a 40% total remission rate at 30 days.

4T1 lung metastases = test: Detection of 4T1 lung metastases
Excerpt: Lungs were examined for 4T1 metastases as previously described (Pulaski B. et al. Cancer Res. 60:2710-2715, 2000). Primary 4T1 tumors that have been established for 2-3 weeks in BALB/c mice metastasize to the lungs in a very large majority of animals. Briefly, mice were sacrificed according to IACUC guidelines established at the start of the trials, the lungs were removed, and tumor nodules on the surface of the lungs were enumerated with the naked eye by two independent investigators blinded to the treatment protocols.
To further investigate the efficacy of Nani-P2 against established and metastatic breast cancer, 4T1 cells were injected SC in the abdominal mammary gland of mice and treatment was delayed until such time that the tumors had metastasized to the lungs and averaged 3.5 mm in size (FIG. 8A, day 13), corresponding to a 2.4 cm or stage T2 human breast tumor. Mice were followed for tumor growth (FIG. 8A) and lung metastases (FIG. 8B). […] This corresponded to a less aggressive appearance of primary tumor, as well as lung metastases that were on average much smaller in size (FIG. 8B).

[1] = Toxicity observed in treated mice; details: SC or IV 40 ng, multiple trials, multiple dosing schedules

B1: Nani-P2: Tat derivative polypeptide SEQ ID NO:3; TF SIVagmVer, cysteine-rich HIV-1, C-terminal SIVagmVer (protein)
chain: MDPKGEEDQDVSHQDLIKQYRKPRTACNNCYCKKCCFHCYACFLRKGLGITYHAFRTRRKKIASADRIPVPQQSISIRGRDSQTTQESQKKVEEQAKANLRISRKNLGDETRGPVGAGN
modifications: Tat derivative polypeptide
notes: TF SIVagmVer, cysteine-rich HIV-1, C-terminal SIVagmVer
IFN-γ production of spleen cells versus control mice (IFN-γ; 40 ng SC weekly for 4 weeks, spleens day 33, 72 hr culture, all conditions of assay): significantly (p<0.05*) higher
baseline levels of INF-γ secreted by splenocytes versus PBS control mice (IFN-γ; no in vitro restimulation): 8 -fold
stimulation index (IFN-γ; tumor stimulators + IL4 + GM-CSF, versus control): 53
animals with SM1 tumor growth suppressed for 16 days (SM1 breast cancer cells; 40 ng SC days 0, 7, 14, 21): 100%
difference in SM1 primary tumor growth versus control (SM1 breast cancer cells; 40 ng SC days 0, 7, 14, 21, p<0.01): highly statistically significant
animals remaining in remission at 28 days following implant (SM1 breast cancer cells; 40 ng SC, one week after termination of the regimen): 40%
4T1 tumor volume difference versus control, 4 ng (4T1 breast tumor; 4 ng per mouse, four times over 21 days, p<0.1 as printed): highly significant
mice in complete remission, disease-free at 50 days (4T1 breast tumor; 40 ng IV weekly over three weeks from day 14): one animal underwent a complete remission; also recorded: One of 10
mice with regression of tumor at the initial treatment on day 14 (4T1 breast tumor; 40 ng IV, established 4T1 tumors): 7/10
4T1 tumor volume difference versus control, 40 ng (4T1 breast tumor; 40 ng per mouse, four times over 21 days, p<0.01): highly significant
primary tumor burden of established 4T1 tumors versus PBS control (4T1 breast tumor; 40 ng weekly for three weeks beginning at day 14 (IV), p<0.01): statistically significant benefit in primary tumor suppression; also recorded: highly significant
4T1 tumor volume difference versus control starting at day 22 (4T1 breast tumor; 400 ng SC days 0, 7, 14, 21, p<0.01): highly significant
4T1 tumor burden versus PBS control (4T1 breast tumor; 400 ng partially-purified, SC, days 0, 7, 14, 21 (Nani-P3 also 2 μg), from day 15, p<0.05): significantly reduced tumor burden; also recorded: significant
average decrease of 4T1 tumor burden at maximal effect (4T1 breast tumor; SC therapy begun on day 13, tumors about 5 mm in diameter): 52%
average shrinkage of 4T1 tumor burden (4T1 breast tumor; SC therapy initiated on day 0 after tumor cell injection): 53%
effect of increasing the dose to 400 ng and 2 μg (4T1 breast tumor; SC, compared with 40 ng, data not shown): no further anti-tumor efficacy
difference in primary tumor burden between Nani-P2 and Nani-P1-treated tumors (4T1 breast tumor; day 21 (final dosing), 400 ng SC, p<0.01): 18 mm^3
dose giving significant 4T1 tumor growth inhibition (4T1 breast tumor; highly-purified, SC): ≤ 0.4 ng
4T1 breast tumor growth inhibitory effect, dose relation (4T1 breast tumor; highly-purified, SC, 0.4 ng to 40 ng per dose): dose-dependent
suppression of TS/A tumor growth (TS/A breast cancer cells; 0.4 ng SC): ~50%
TS/A primary anti-cancer difference versus control, lowest dose (TS/A breast cancer cells; 0.4 ng SC, p<0.01): highly significant
TS/A primary anti-cancer difference versus control, 40 ng (TS/A breast cancer cells; 40 ng SC, p<0.01): highly significant
TS/A total remission rate at 30 days (TS/A breast cancer cells; SC Nani-P2, 30 days): 40%
lung metastases versus controls (4T1 lung metastases; 4T1 model): significantly inhibited the development of spontaneous 4T1 lung metastases; also recorded: dramatic reduction in the visible number of lung metastases
average number of grossly visible tumor nodules in the lungs (4T1 lung metastases; treated IV, treatment delayed to day 13, p<0.01): seven
toxicity [1]: no toxicity was observed
